This is an account of results in patent US20200283508A1 (TEXAS A AND M UNIVERSITY SYSTEM, published 2020).

The labels stand for the following.
B1: FBE5-D10 (scFv, V domains shown)
VH: QVQLVQSGGGVVQPGRSLRLSCAASGFTFSNYGMHWVRQAPGKGLEWVAVISYDGSNKYYADSVKGRFTISRDNSKNTLYLQMNSLRAEDTAVYYCAKDSREQWLAHWGQGTLVTVSS
VL: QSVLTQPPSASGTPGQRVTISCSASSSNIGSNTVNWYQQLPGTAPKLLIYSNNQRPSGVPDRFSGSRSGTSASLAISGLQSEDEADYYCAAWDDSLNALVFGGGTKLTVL
B2: FBE5-A5 (scFv, V domains shown)
VH: EVQLVQSGGGVVQPGRSLRLSCAASGFTFSSYGMHWVRQAPGKGLEWVAVISYDGSNKYYADSVKGRFTISRDNSKNTLYLQMNSLRAEDTAVYYCAKAGPDSYGYGMDVWGQGTTVTVSS
VL: not shown
B3: FBE5-D9 (scFv, V domains shown)
VH: QVQLVESGGGVVQPGRSLRLSCAASGFTFSSYGMHWVRQAPGKGLEWVAVISYDGSNKYYADSVKGRFTISRDNSKNTLYLQMNSLRAEDTAVYYCAKNQEWLVPGYWGQGTLVTVSS
VL: QSALTQPASVSGSPGQSITISCTGTSSDVGGYNYVSWYQQHPGKAPKLMIYDVSNRPSGVSNRFSGSKSGNTASLTISGLQAEDEADYYCSSYTSSSTLVFGGGTKLTVL
B4: FBE5-C1 (scFv, V domains shown)
VH: EVQLVETRGGVVQPGRSLRLSCAASGFTFSSYGMHWVRQAPGKGLEWVAVISYDGSNKYYADSVKGRFTISRDNSKNTLYLQMNSLRAEDTAVYYCAREGTYYYDSSGYYEGGFDYWGQGTLVTVSS
VL: QSVLTQPPSASGTPGQRVTISCSGSSSNIGSGPVNWYQQLPGTAPKLLIYSDTRRPSGIPDRLSGSKSGTSASLGISGLQSEDEADYYCAAWDDSLNGYAFGSGTKVTVL
B5: FBE5-B9 (scFv, V domains shown)
VH: EVQLVESRGGVVQPGRSLRLSCAASGFTFSSYGMHWVRQAPGRGLEWVAVISYDGSNKYYADSVKGRFTISRDNSKNTLYLQMNGLRSDDTAVYYCARGGDDYGDYFDYWGQGTLVTVSS
VL: QSVLTQPPSVSAAPGQKVTISCSGSSSNIGNNYVSWYQQLPGTAPKLLIYDNNKRPSGIPDRFSGSKSGTSATLGITGLQTGDEADYYCGTWDSSLSAAVFGGGTKLTVL
B6: FBE5-F9 (scFv, V domains shown)
VH: QMQLVQSGGGVVQPGRSLRLSCAASGFTFSSYGMHWVRQAPGKGLEWVAVISYDGSNKYYADSVKGRFTISRDNSKNTLYLQMNSLRAEDTAVYYCAKEGDGDYGGVLDYWGQGTLVTVSS
VL: B5 VL with G30E, N31K, A99V
B7: FBE5-C8 (scFv, V domains shown)
VH: QMQLVQSGGGVVQPGRSLRLSCAASGFIFSNYGMHWVRQAPGKGLEWVAVISYDGSNKYYADSVKGRFTISRDNSKNTLYLQMDSLRAEDTAVYYCAREGVGGDYGDLPTGPYYYYGMDVWGQGTTVTVSS
VL: B5 VL with Y33S, G90E, A99V
B8: FBE5-A6 (scFv, V domains shown)
VH: B6 VH with M2V, E99A, G102D, G106H, V107Y, L108F
VL: not shown
B9: FBE5-A12 (scFv, V domains shown)
VH: QVQLVESGGGVVQPGRSLRLSCAASGFTFSSYGMHWVRQAPGKGLEWVAVISYDGSNKYYADSVKGRFTISRDNSKNTLYLQMNSLRGEDTAVYYCAREGGWEPNGLDYWGQGTLVTVSS
VL: QAVLTQPPSASGTPGQRVTISCSGSDFNVGTNYVNWYQQLPGSAPKLLIYRNNQRPSGVPDRFSGSKSGTSATLGITGLQTGDEADYYCGTWDSSLSAEVFGGGTKLTVL

Where a chain is given by its changes, count along the chain named.

In one test the target is T1, Efb-A30-67 (Staphylococcus aureus strain Newman, UniProt P08515 1-218 = GST; A6QG59 30-67).
Assay: not given
Broadly, the EC50 (read off the curve) is the concentration at which the effect is half-maximal. Consider B1, for which the “EC50 (read off the curve)” value was around 0.1 µg/mL.

Consider B2, for which the 50% effective concentration (EC50 (read off the curve)) is around 0.4 µg/mL.

For the next test, the target named is T2, recombinant Efb-O (Efb 68-98) (Staphylococcus aureus strain Newman, UniProt P08515 1-218 = GST).
Assay: not given
With B1, the “EC50 (read off the curve)” value is around 0.3 µg/mL.

Regarding B3, the half-maximal effective concentration (EC50 (read off the curve)) is around 0.3 µg/mL.

The next test concerns the target T3, Efb-N30-105 (Staphylococcus aureus strain Newman, UniProt A6QG59 30-105).
T3 sequence: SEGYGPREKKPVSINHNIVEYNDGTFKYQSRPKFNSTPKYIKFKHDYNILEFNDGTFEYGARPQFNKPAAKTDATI
Assay: not given
Turning to B1, the concentration giving a half-maximal response (EC50 (read off the curve)) is around 0.2 µg/mL.

Turning to B3, the “EC50 (read off the curve)” value is around 0.1 µg/mL.

For the next test, the target named is Coa-R (Coa 506-636) (Staphylococcus aureus strain Newman). The test is described as follows: ELISA, antigen coated 200 ng/well, scFv-Fc at 0.5 µg/ml. Background: An ELISA detects its analyte on a solid surface through an enzyme-linked reagent.
Regarding B4, the binding result is “no binding (tested: 0.5 µg/ml)”.

For B5, the binding result is recorded as “no binding (tested: 0.5 µg/ml)”.

Take B6: the binding result is on record as “no binding (tested: 0.5 µg/ml)”.

Consider B7, for which the binding result is “no binding (tested: 0.5 µg/ml)”.

Regarding B1, the binding result was “no binding (tested: 0.5 µg/ml)”.

With B2, the binding result is listed as “no binding (tested: 0.5 µg/ml)”.

B8: the binding result is on record as “no binding (tested: 0.5 µg/ml)”.

As for B3, the binding result is “no binding (tested: 0.5 µg/ml)”.

For B9, the binding result is recorded as “no binding (tested: 0.5 µg/ml)”.

The target of a further test is T4, Coa-F (Coa 311-505) (Staphylococcus aureus strain Newman, UniProt P08515 1-218 = GST). The test is described as follows: apparent Kd from half-maximal binding in ELISA (GraphPad Prism).
Consider B4, for which the Kd amounted to 4.59 nM.

Turning to B5, the Kd came to 1.12 nM.

On to B6, for which the Kd stood at 1.63 nM.

Turning to B7, the Kd was determined as 7 nM.

Take B1: the Kd worked out at 0.95 nM.

Consider B2, for which the Kd was found to be 1.47 nM.

Consider B8, for which the Kd amounted to 1.15 nM.

With B3, the Kd came out at 0.536 nM.

With B9, the Kd amounted to 0.647 nM.

For a further test, the target named is T5, Coa-R0474-505 (recombinant protein) (Staphylococcus aureus strain Newman).
T5 chain: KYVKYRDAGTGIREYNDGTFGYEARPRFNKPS
The test is described as above.
As for B4, the Kd was determined as 24.3 nM.

Regarding B5, the Kd was 2.19 nM.

Take B6: the Kd came to 3.16 nM.

With B1, the Kd was determined as 0.856 nM.

Take B2: the Kd stood at 1.86 nM.

As to B8, the Kd is 1.9 nM.

In the case of B3, the Kd amounted to 1.14 nM.

Consider B9, for which the Kd was found to be 2.44 nM.

Another test deals with T6, Coa-C (Coa 311-636) (Staphylococcus aureus strain Newman, UniProt P08515 1-218 = GST).
T6 construct: also called rCoa-C; Coa-C311-636
The description is as above.
With B4, the Kd worked out at 1.13 nM.

B5: the Kd was found to be 1.74 nM.

With B6, the Kd was 2.85 nM.

Consider B7, for which the Kd is 13.5 nM.

With B1, the Kd was 1.4 nM.

In the case of B2, the Kd worked out at 5.34 nM.

For the molecule B8, the Kd was 1.24 nM.

Regarding B3, the Kd turned out to be 0.779 nM.

Take B9: the Kd is 0.555 nM.

In another test the target is T1, Efb-A30-67. Described as above.
As to B4, the Kd came out at 40.9 nM.

Consider B5, for which the Kd was 25.9 nM.

As to B6, the Kd turned out to be 21.5 nM.

For the molecule B1, the Kd is 1.57 nM.

For B2, the Kd was determined as 4.38 nM.

Take B8: the Kd stood at 8.54 nM.

For the molecule B3, the Kd was found to be 4.48 nM.

The target in the next test is T2, recombinant Efb-O (Efb 68-98). The test is described as above.
As for B5, the Kd was 8.27 nM.

Consider B6, for which the Kd came to 7.97 nM.

As for B1, the Kd was 3.65 nM.

B2: the Kd is 4.27 nM.

Consider B8, for which the Kd came out at 13 nM.

B3: the Kd came out at 2.68 nM.

The target in the next test is T3, Efb-N30-105. The description is as above.
Turning to B5, the Kd was 3.45 nM.

Take B6: the Kd came out at 6.01 nM.

B1: the Kd was found to be 1.97 nM.

Take B2: the Kd was determined as 3.24 nM.

Take B8: the Kd amounted to 3.54 nM.

On to B3, for which the Kd was 1.31 nM.

The target of the next test is T4, Coa-F (Coa 311-505).
Assay: not given
On to B1, for which the “EC50 (read off the curve)” value is around 0.09 µg/mL.

In the case of B3, the “EC50 (read off the curve)” value is around 0.06 µg/mL.

A further test deals with T5, Coa-R0474-505 (recombinant protein).
Assay: not given
On to B5, for which the half-maximal effective concentration (EC50 (read off the curve)) was around 0.2 µg/mL.

For B1, the “EC50 (read off the curve)” value was around 0.08 µg/mL.

As for B2, the “EC50 (read off the curve)” value was around 0.2 µg/mL.

With B8, the “EC50 (read off the curve)” value was around 0.2 µg/mL.

With B3, the “EC50 (read off the curve)” value was around 0.1 µg/mL.

In a further test the target is T6, Coa-C (Coa 311-636).
Assay: not given
As for B1, the “EC50 (read off the curve)” value is around 0.1 µg/mL.

Consider B3, for which the half-maximal effective concentration (EC50 (read off the curve)) was around 0.08 µg/mL.

In the case of B9, the concentration giving a half-maximal response (EC50 (read off the curve)) is around 0.06 µg/mL.
